Measurements taken from patent US20250277767A1 (RAMOT AT TEL AVIV UNIVERSITY, published 2025).

Key:
[1] = molecular target: T1, EspB of Citrobacter rodentium (Citrobacter rodentium DBS100); test: western blot of culture supernatants, detection with mAb-EspB-B7
T1 construct: also called C. rodentium EspB

[2] = molecular target: T2, native EspB of wild-type EPEC; test: as above
T2 construct: also called EspB in the assembled T3SS; WT EPEC

B1: mAb-EspB-B7 (antibody, V domains shown)
VH: EVQLLESGGGLVQPGGSLRLSCAASGFTFSHYAMNWVRQAPGKGLEWVSAINSNGDSTYYPDTVKDRFTISRDNSKNTLYLQMNSLRAEDTAVYYCARDRRAGYFDYWGQGTLVTVSS
VL: DIVLTQPPSASGTPGQRVTISCSGSRDNIGKNYVSWYQQLPGTAPKLLIYRNNQRPSGVPDRFSGSKSGTSASLAISGLRSEDEADYYCSAWDTSLNAYVFGPGTQLTVL
notes: also called mAb-B7; EspB-specific monoclonal antibody
B1: binds [1]; binds [2].
